Source: patent US20140274782A1, “AFFINITY REAGENTS AND METHODS FOR DETECTION, PURIFICATION, AND PROTEOMIC ANALYSIS OF METHYLATED PROTEINS” (The Board of Trustees of the Leland Stanford Junior …, priority 2013, published 2014)

T1: G9a and GLP (Homo sapiens, UniProt Q96KQ7+Q9H9B1)
T1 sequence (Q96KQ7 2-1210 limits assumed): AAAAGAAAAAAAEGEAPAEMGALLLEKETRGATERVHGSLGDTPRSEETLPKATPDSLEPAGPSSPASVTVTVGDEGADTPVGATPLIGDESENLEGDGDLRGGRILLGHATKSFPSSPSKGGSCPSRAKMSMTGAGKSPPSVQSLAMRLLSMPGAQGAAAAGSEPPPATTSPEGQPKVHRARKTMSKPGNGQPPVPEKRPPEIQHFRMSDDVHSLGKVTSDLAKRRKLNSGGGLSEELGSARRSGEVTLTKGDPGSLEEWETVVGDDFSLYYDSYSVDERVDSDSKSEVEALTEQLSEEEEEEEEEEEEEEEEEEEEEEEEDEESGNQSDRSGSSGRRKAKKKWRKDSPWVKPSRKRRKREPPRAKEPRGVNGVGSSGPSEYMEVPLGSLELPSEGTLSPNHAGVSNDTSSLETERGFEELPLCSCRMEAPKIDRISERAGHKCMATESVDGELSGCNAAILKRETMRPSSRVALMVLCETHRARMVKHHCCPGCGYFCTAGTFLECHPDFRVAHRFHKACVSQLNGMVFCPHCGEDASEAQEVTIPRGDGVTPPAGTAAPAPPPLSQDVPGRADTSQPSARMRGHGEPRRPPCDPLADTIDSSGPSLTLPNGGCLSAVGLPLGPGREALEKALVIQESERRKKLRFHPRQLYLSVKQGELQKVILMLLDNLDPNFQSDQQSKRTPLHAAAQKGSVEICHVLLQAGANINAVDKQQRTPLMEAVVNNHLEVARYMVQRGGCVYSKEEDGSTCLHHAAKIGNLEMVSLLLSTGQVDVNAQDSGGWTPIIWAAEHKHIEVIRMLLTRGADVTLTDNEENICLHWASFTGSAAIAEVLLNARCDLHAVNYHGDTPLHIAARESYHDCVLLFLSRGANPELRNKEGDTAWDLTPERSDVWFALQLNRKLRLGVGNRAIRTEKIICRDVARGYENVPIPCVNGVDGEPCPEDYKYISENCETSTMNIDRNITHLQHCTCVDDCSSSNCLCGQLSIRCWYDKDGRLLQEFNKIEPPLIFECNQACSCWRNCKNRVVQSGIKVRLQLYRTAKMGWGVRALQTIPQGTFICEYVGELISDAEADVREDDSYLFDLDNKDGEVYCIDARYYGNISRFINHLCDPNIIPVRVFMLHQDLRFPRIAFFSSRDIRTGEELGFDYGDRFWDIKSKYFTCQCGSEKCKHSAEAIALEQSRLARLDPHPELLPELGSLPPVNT
T1 sequence (Q9H9B1 2-1298 limits assumed): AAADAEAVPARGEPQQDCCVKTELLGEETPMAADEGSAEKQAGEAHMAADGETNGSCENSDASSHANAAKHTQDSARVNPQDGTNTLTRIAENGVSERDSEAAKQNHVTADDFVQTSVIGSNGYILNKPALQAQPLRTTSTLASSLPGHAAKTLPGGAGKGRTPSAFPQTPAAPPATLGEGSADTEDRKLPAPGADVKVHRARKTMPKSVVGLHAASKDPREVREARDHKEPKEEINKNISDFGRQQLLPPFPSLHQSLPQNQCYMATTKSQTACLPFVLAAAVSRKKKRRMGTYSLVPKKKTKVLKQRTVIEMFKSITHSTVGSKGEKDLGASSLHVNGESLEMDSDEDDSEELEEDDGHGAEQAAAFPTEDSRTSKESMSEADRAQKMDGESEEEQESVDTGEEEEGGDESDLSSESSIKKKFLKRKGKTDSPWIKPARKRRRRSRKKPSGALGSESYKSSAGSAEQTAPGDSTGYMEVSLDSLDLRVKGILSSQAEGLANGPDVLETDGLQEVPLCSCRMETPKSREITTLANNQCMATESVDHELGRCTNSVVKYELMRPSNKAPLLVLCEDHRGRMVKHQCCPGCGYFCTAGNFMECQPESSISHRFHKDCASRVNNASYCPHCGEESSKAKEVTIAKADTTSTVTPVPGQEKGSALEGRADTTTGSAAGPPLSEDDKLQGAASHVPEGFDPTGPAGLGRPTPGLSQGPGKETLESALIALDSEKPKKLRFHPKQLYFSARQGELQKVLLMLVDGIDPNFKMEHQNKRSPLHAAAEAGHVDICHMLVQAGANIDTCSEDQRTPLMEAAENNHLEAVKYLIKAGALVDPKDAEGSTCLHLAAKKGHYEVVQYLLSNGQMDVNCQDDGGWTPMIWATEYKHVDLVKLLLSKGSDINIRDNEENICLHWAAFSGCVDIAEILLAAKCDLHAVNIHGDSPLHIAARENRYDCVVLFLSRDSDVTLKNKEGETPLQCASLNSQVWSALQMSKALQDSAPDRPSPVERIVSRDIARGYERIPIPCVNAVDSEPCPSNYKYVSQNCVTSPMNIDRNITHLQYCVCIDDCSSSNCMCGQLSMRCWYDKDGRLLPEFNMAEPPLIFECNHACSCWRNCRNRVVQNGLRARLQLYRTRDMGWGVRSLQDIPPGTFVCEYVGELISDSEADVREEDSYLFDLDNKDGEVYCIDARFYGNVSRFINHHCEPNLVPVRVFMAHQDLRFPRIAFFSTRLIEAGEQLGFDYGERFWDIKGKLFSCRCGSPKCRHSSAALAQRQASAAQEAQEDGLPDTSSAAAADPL


How the values were obtained:
G9a and GLP = biological target: T1, G9a and GLP; test: Triple SILAC pull-down after UNC0638 treatment of 293T cells, DMSO/UNC0638 ratio of protein captured by 3×MBT; format: cell-based; parameters: endogenous in cells; host or cells: HEK 293T; details: for Relative to UNC0638 UNC Light / Relative to UNC0638 UNC Heavy: SILAC ratio DMSO/UNC0638 of protein pulled down with 3xMBT; for Relative to UNC0638 UNC Light: UNC0638 in light SILAC media; for Relative to UNC0638 Average: average of UNC Light and UNC Heavy experiments; for Relative to UNC0638 UNC Heavy: UNC0638 in heavy SILAC media;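 as to all read-outs here: mass spectrometry (Q-Exactive) SILAC quantitation, DMSO/UNC0638 ratio computed after subtracting 3×MBTD355N mutant pull-down background, only proteins with at least twofold 3×MBT over mutant signal considered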
3×MBT domain of L3MBTL1 = test: Triple SILAC pull-down, 3xMBT/3xMBTD355N ratio (cytoplasmic, nuclear and chromatin fractions of 293T cells); format: binding, human; details: SILAC ratio, pull-down 3xMBT vs 3xMBTD355N; for 3xMBT/D355N UNC Heavy: experiment with UNC0638 in heavy SILAC media; for 3xMBT/D355N UNC Light: experiment with UNC0638 in light SILAC media;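 as to all read-outs here: proteins quantified with MaxQuant, requiring at least two unique peptides and quantification in both label directions, normalized to the mean of proteins from a digested loading control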

Relative to UNC0638 UNC Light (G9a and GLP) [log base 2]	Relative to UNC0638 Average (G9a and GLP) [log base 2]	Relative to UNC0638 UNC Heavy (G9a and GLP) [log base 2]	Molecule	3xMBT/D355N UNC Heavy (3×MBT domain of L3MBTL1) [log base 2]	3xMBT/D355N UNC Light (3×MBT domain of L3MBTL1) [log base 2]
4.14	4.14		HPSE2 (protein, UniProt Q8WWQ2 42-592, looked up) Inactive heparanase-2: GDRRPLPVDRAAGLKEKTLILLDVSTKNPVRTVNENFLSLQLDPSIIHDGWLDFLSSKRLVTLARGLSPAFLRFGGKRTDFLQFQNLRNPAKSRGGPGPDYYLKNYEDDIVRSDVALDKQKGCKIAQHPDVMLELQREKAAQMHLVLLKEQFSNTYSNLILTARSLDKLYNFADCSGLHLIFALNALRRNPNNSWNSSSALSLLKYSASKKYNISWELGNEPNNYRTMHGRAVNGSQLGKDYIQLKSLLQPIRIYSRASLYGPNIGRPRKNVIALLDGFMKVAGSTVDAVTWQHCYIDGRVVKVMDFLKTRLLDTLSDQIRKIQKVVNTYTPGKKIWLEGVVTTSAGGTNNLSDSYAAGFLWLNTLGMLANQGIDVVIRHSFFDHGYNHLVDQNFNPLPDYWLSLLYKRLIGPKVLAVHVAGLQRKPRPGRVIRDKLRIYAHCTNHHNHNYVRGSITLFIINLHRSRKKIKLAGTLRDKLVHQYLLQPYGQEGLKSKSVQLNGQPLVMVDDGTLPELKPRPLRAGRTLVIPPVTMGFYVVKNVNALACRYR	−0.14	3.81
0.17	0.21	0.25	ORC3 (protein, UniProt Q9UBD5 1-711, looked up) Origin recognition complex …: MATSSMSKGCFVFKPNSKKRKISLPIEDYFNKGKNEPEDSKLRFETYQLIWQQMKSENERLQEELNKNLFDNLIEFLQKSHSGFQKNSRDLGGQIKLREIPTAALVLGVNVTDHDLTFGSLTEALQNNVTPYVVSLQAKDCPDMKHFLQKLISQLMDCCVDIKSKEEESVHVTQRKTHYSMDSLSSWYMTVTQKTDPKMLSKKRTTSSQWQSPPVVVILKDMESFATKVLQDFIIISSQHLHEFPLILIFGIATSPIIIHRLLPHAVSSLLCIELFQSLSCKEHLTTVLDKLLLTTQFPFKINEKVLQVLTNIFLYHDFSVQNFIKGLQLSLLEHFYSQPLSVLCCNLPEAKRRINFLSNNQCENIRRLPSFRRYVEKQASEKQVALLTNERYLKEETQLLLENLHVYHMNYFLVLRCLHKFTSSLPKYPLGRQIRELYCTCLEKNIWDSEEYASVLQLLRMLAKDELMTILEKCFKVFKSYCENHLGSTAKRIEEFLAQFQSLDETKEEEDASGSQPKGLQKTDLYHLQKSLLEMKELRRSKKQTKFEVLRENVVNFIDCLVREYLLPPETQPLHEVVYFSAAHALREHLNAAPRIALHTALNNPYYYLKNEALKSEEGCIPNIAPDICIAYKLHLECSRLINLVDWSEAFATVVTAAEKMDANSATSEEMNEIIHARFIRAVSELELLGFIKPTKQKTDHVARLTWGGC	1.54	2.54
0.19	0.21	0.24	HNRNPH1 (protein, UniProt P31943 1-449, looked up) Heterogeneous nuclear …: MMLGTEGGEGFVVKVRGLPWSCSADEVQRFFSDCKIQNGAQGIRFIYTREGRPSGEAFVELESEDEVKLALKKDRETMGHRYVEVFKSNNVEMDWVLKHTGPNSPDTANDGFVRLRGLPFGCSKEEIVQFFSGLEIVPNGITLPVDFQGRSTGEAFVQFASQEIAEKALKKHKERIGHRYIEIFKSSRAEVRTHYDPPRKLMAMQRPGPYDRPGAGRGYNSIGRGAGFERMRRGAYGGGYGGYDDYNGYNDGYGFGSDRFGRDLNYCFSGMSDHRYGDGGSTFQSTTGHCVHMRGLPYRATENDIYNFFSPLNPVRVHIEIGPDGRVTGEADVEFATHEDAVAAMSKDKANMQHRYVELFLNSTAGASGGAYEHRYVELFLNSTAGASGGAYGSQMMGGMGLSNQSSYGGPASQQLSGGYGGGYGGQSSMSGYDQVLQENSSDFQSNIA	1.85	2.27
0.31	0.21	0.12	RALY (protein, UniProt Q9UKM9 2-306, looked up) RNA-binding protein Raly: SLKLQASNVTNKNDPKSINSRVFIGNLNTALVKKSDVETIFSKYGRVAGCSVHKGYAFVQYSNERHARAAVLGENGRVLAGQTLDINMAGEPKPDRPKGLKRAASAIYSGYIFDYDYYRDDFYDRLFDYRGRLSPVPVPRAVPVKRPRVTVPLVRRVKTNVPVKLFARSTAVTTSSAKIKLKSSELQAIKTELTQIKSNIDALLSRLEQIAAEQKANPDGKKKGDGGGAGGGGGGGGSGGGGSGGGGGGGSSRPPAPQENTTSEAGLPQGEARTRDDGDEEGLLTHSEEELEHSQDTDADDGALQ	1.15	3.37
0.09	0.20	0.30	CPSF6 (protein, UniProt Q16630 1-551, looked up) Cleavage and polyadenylation …: MADGVDHIDIYADVGEEFNQEAEYGGHDQIDLYDDVISPSANNGDAPEDRDYMDTLPPTVGDDVGKGAAPNVVYTYTGKRIALYIGNLTWWTTDEDLTEAVHSLGVNDILEIKFFENRANGQSKGFALVGVGSEASSKKLMDLLPKRELHGQNPVVTPCNKQFLSQFEMQSRKTTQSGQMSGEGKAGPPGGSSRAAFPQGGRGRGRFPGAVPGGDRFPGPAGPGGPPPPFPAGQTPPRPPLGPPGPPGPPGPPPPGQVLPPPLAGPPNRGDRPPPPVLFPGQPFGQPPLGPLPPGPPPPVPGYGPPPGPPPPQQGPPPPPGPFPPRPPGPLGPPLTLAPPPHLPGPPPGAPPPAPHVNPAFFPPPTNSGMPTSDSRGPPPTDPYGRPPPYDRGDYGPPGREMDTARTPLSEAEFEEIMNRNRAISSSAISRAVSDASAGDYGSAIETLVTAISLIKQSKVSADDRCKVLISSLQDCLHGIESKSYGSGSRRERSRERDHSRSREKSRRHKSRSRDRHDDYYRERSRERERHRDRDRDRDRERDREREYRHR	1.89	3.10
